In patent US20250276077A1 (IMMUNOME, published 2025):

Target: Human EphA2 (ephrin receptor A2) on cells (human, UniProt P29317 25-976)
Test: cell-based or functional assay

Chain of Human EphA2 (ephrin receptor A2) on cells (P29317 25-976): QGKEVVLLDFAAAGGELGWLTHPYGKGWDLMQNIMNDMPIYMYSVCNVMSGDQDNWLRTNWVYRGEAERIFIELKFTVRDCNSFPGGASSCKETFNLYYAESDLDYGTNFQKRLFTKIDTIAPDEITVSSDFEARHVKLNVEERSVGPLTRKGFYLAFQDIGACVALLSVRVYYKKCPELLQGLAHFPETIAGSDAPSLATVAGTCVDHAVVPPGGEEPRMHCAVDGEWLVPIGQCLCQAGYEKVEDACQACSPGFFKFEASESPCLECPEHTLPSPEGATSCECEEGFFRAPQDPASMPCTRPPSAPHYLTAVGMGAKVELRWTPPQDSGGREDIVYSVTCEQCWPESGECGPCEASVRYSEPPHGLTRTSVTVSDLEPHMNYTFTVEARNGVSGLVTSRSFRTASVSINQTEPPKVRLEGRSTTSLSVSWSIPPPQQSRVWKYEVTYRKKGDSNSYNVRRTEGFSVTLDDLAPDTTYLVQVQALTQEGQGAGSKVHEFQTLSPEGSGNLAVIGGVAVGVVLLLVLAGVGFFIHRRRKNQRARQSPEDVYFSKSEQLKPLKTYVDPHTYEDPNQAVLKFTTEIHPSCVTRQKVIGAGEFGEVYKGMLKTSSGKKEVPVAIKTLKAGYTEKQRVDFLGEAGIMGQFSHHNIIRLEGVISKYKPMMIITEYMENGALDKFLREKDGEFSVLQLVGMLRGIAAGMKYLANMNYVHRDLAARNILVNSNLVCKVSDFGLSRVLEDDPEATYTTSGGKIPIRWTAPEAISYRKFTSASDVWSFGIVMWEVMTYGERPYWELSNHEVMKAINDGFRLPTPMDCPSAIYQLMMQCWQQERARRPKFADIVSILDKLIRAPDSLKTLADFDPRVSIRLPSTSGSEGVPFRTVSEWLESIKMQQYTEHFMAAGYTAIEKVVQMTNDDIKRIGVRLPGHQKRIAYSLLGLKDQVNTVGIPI

Row | Binder | ADCC - EC50 (nM), Trial 1, A549 [nM] | ADCC - EC50 (nM), Trial 2, A549 [nM]
1 | AB-010693 (antibody, V domains shown) VH: QVQLQQWGAGLLKPSETLSLTCAVYGGSFSGYYWSWIRQPPGKGLEWIGEINHRGSINYNNYNPSLKSRVTISVDTSKNQFSLKLSSVTAADTAVYYCAKPLRPHCINGVCYSGDAFDIWGQGTMVTVAS VL: SYVLTQPPSVSVAPGQTARITCGGNNIGYKNVHWYQQKPGQAPVLVVYDDSDRPSGIPERFSGSNSGNTATLTISRVEAGDEADYYCQVWDSSSDHVVFGGGTKLTVL | 0.15 | 
2 | AB-010697 (antibody, V domains shown) VH: QVQLQQWGAGLLKPSETLSLTCAVYGGSFSGYYWSWIRQPPGKGLEWIGEINHRGSINYNNYNPSLKSRVTISVDTSKNQFSLKLSSVTAADTAVYYCAKPLRPHCTNGVCYSGDAFDIWGQGTMVTVAS VL: SYVLTQPPSVSVAPGQTARITCGGNNIGSMNVHWYQQKPGQAPVLVVYDDSDRPSGIPERFSGSNSGNTATLTISRVEAGDEADYYCQVWDHSSDHVVFGGGTKLTVL | 0.3 | 
3 | AB-010662 (antibody, V domains shown) VH: QVQLQQWGAGLLKPSETLSLTCAVYGGSFSDYYWSWIRQPPGKGLEWIGEINHRGSINYNNYNPSLKSRVTISVDTSKNQFSLKLSSVTAADTAVYYCAKPLRPHCTNGVCYSGDAFDIWGQGTMVTVAS VL: SYVLTQPPSVSVAPGQTARITCRGNNIGYKNVHWYQQKPGQAPVLVVYDDSDRPSGIPEQFSGSNSGNTATLTISRVEAGDEADYYCQVWDSSSDHVVFGGGTKLTVL | 0.57 | 
4 | AB-010695 (antibody, V domains shown) VH: QVQLQQWGAGLLKPSETLSLTCAVYGGSFSGYYWSWIRQPPGKGLEWIGEINHRGSINYNNYNPSLKSRVTISVDTSKNQFSLKLSSVTAADTAVYYCAKPLRPHCTNGVCYSGDAFDIWGQGTMVTVAS VL: SYVLTQPPSVSVAPGQTARITCGGNNIGYKNVHWYQQKPGQAPVLVVYDDSDRPSGIPERFSGSNSGNTATLTISRVEAGDEADYYCQVWDHSSDHVVFGGGTKLTVL | ~0.021 | 0.0096
5 | AB-010664 (antibody, V domains shown) VH: QVQLQQWGAGLLKPSETLSLTCAVYGGSFSDYYWSWIRQPPGKGLEWIGEINHRGSINYNNYNPSLKSRVTISVDTSKNQFSLKLSSVTAADTAVYYCAKPLRPHCTNGVCYSGDAFDIWGQGTMVTVAS VL: SYVLTQPPSVSVAPGQTARITCRGNNIGSKNVHWYQQKPGQAPVLVVYDDSDRPSGIPEQFSGSNSGNTATLTISRVEAGDEADYYCQVWDHSSDHVVFGGGTKLTVL | 0.54 | 
6 | AB-010701 (antibody, V domains shown) VH: QVQLQQWGAGLLKPSETLSLTCAVYGGSFSGYYWSWIRQPPGKGLEWIGEINHRGSINYNNYNPSLKSRVTISVDTSKNQFSLKLSSVTAADTAVYYCAKPLRPHCTNGVCYSGDAFDIWGQGTMVTVAS VL: SYVLTQPPSVSVAPGQTARITCGGNNIGSKNVHWYQQKPGQAPVLVVYDDSDRPSGIPERFSGSNSGNTATLTISRVEAGDEADYYCQVWDSESDHVVFGGGTKLTVL | 3 | 
7 | AB-010696 (antibody, V domains shown) VH: QVQLQQWGAGLLKPSETLSLTCAVYGGSFSGYYWSWIRQPPGKGLEWIGEINHRGSINYNNYNPSLKSRVTISVDTSKNQFSLKLSSVTAADTAVYYCAKPLRPHCINGVCYSGDAFDIWGQGTMVTVAS VL: SYVLTQPPSVSVAPGQTARITCGGNNIGSMNVHWYQQKPGQAPVLVVYDDSDRPSGIPERFSGSNSGNTATLTISRVEAGDEADYYCQVWDSSSDHVVFGGGTKLTVL | 1.9 | 
8 | AB-010661 (antibody, V domains shown) VH: QVQLQQWGAGLLKPSETLSLTCAVYGGSFSDYYWSWIRQPPGKGLEWIGEINHRGSINYNNYNPSLKSRVTISVDTSKNQFSLKLSSVTAADTAVYYCAKPLRPHCINGVCYSGDAFDIWGQGTMVTVAS VL: SYVLTQPPSVSVAPGQTARITCRGNNIGSKNVHWYQQKPGQAPVLVVYDDSDRPSGIPEQFSGSNSGNTATLTISRVEAGDEADYYCQVWDSSSDHVVFGGGTKLTVL | 5.7 | 
9 | AB-010663 (antibody, V domains shown) VH: QVQLQQWGAGLLKPSETLSLTCAVYGGSFSDYYWSWIRQPPGKGLEWIGEINHRGSINYNNYNPSLKSRVTISVDTSKNQFSLKLSSVTAADTAVYYCAKPLRPHCTNGVCYSGDAFDIWGQGTMVTVAS VL: SYVLTQPPSVSVAPGQTARITCRGNNIGSMNVHWYQQKPGQAPVLVVYDDSDRPSGIPEQFSGSNSGNTATLTISRVEAGDEADYYCQVWDSSSDHVVFGGGTKLTVL | 4.7 | 
10 | AB-010665 (antibody, V domains shown) VH: QVQLQQWGAGLLKPSETLSLTCAVYGGSFSDYYWSWIRQPPGKGLEWIGEINHRGSINYNNYNPSLKSRVTISVDTSKNQFSLKLSSVTAADTAVYYCAKPLRPHCINGVCYSGDAFDIWGQGTMVTVAS VL: SYVLTQPPSVSVAPGQTARITCGGNNIGYKNVHWYQQKPGQAPVLVVYDDSDRPSGIPEQFSGSNSGNTATLTISRVEAGDEADYYCQVWDSSSDHVVFGGGTKLTVL | ~0.23 | 0.14
11 | AB-010671 (antibody, V domains shown) VH: QVQLQQWGAGLLKPSETLSLTCAVYGGSFSDYYWSWIRQPPGKGLEWIGEINHRGSINYNNYNPSLKSRVTISVDTSKNQFSLKLSSVTAADTAVYYCAKPLRPHCINGVCYSGDAFDIWGQGTMVTVAS VL: SYVLTQPPSVSVAPGQTARITCGGNNIGYKNVHWYQQKPGQAPVLVVYDDSDRPSGIPEQFSGSNSGNTATLTISRVEAGDEADYYCQVWDHSSDHVVFGGGTKLTVL | < 0.03 | 0.0064
12 | AB-010670 (antibody, V domains shown) VH: QVQLQQWGAGLLKPSETLSLTCAVYGGSFSDYYWSWIRQPPGKGLEWIGEINHRGSINYNNYNPSLKSRVTISVDTSKNQFSLKLSSVTAADTAVYYCAKPLRPHCINGVCYSGDAFDIWGQGTMVTVAS VL: SYVLTQPPSVSVAPGQTARITCGGNNIGSKNVHWYQQKPGQAPVLVVYDDSDRPSGIPEQFSGSNSGNTATLTISRVEAGDEADYYCQVWDHSSDHVVFGGGTKLTVL | 0.36 | 
13 | AB-010667 (antibody, V domains shown) VH: QVQLQQWGAGLLKPSETLSLTCAVYGGSFSDYYWSWIRQPPGKGLEWIGEINHRGSINYNNYNPSLKSRVTISVDTSKNQFSLKLSSVTAADTAVYYCAKPLRPHCTNGVCYSGDAFDIWGQGTMVTVAS VL: SYVLTQPPSVSVAPGQTARITCGGNNIGYKNVHWYQQKPGQAPVLVVYDDSDRPSGIPEQFSGSNSGNTATLTISRVEAGDEADYYCQVWDHSSDHVVFGGGTKLTVL | < 0.03 | 0.012
14 | AB-010702 (antibody, V domains shown) VH: QVQLQQWGAGLLKPSETLSLTCAVYGGSFSGYYWSWIRQPPGKGLEWIGEINHRGSINYNNYNPSLKSRVTISVDTSKNQFSLKLSSVTAADTAVYYCAKPLRPHCTNGVCYSGDAFDIWGQGTMVTVAS VL: SYVLTQPPSVSVAPGQTARITCGGNNIGYKNVHWYQQKPGQAPVLVVYDDSDRPSGIPERFSGSNSGNTATLTISRVEAGDEADYYCQVWDSESDHVVFGGGTKLTVL | 0.065 | 
15 | AB-010669 (antibody, V domains shown) VH: QVQLQQWGAGLLKPSETLSLTCAVYGGSFSDYYWSWIRQPPGKGLEWIGEINHRGSINYNNYNPSLKSRVTISVDTSKNQFSLKLSSVTAADTAVYYCAKPLRPHCTNGVCYSGDAFDIWGQGTMVTVAS VL: SYVLTQPPSVSVAPGQTARITCGGNNIGSMNVHWYQQKPGQAPVLVVYDDSDRPSGIPEQFSGSNSGNTATLTISRVEAGDEADYYCQVWDHSSDHVVFGGGTKLTVL | 0.44 | 
16 | AB-010694 (antibody, V domains shown) VH: QVQLQQWGAGLLKPSETLSLTCAVYGGSFSGYYWSWIRQPPGKGLEWIGEINHRGSINYNNYNPSLKSRVTISVDTSKNQFSLKLSSVTAADTAVYYCAKPLRPHCTNGVCYSGDAFDIWGQGTMVTVAS VL: SYVLTQPPSVSVAPGQTARITCGGNNIGYMNVHWYQQKPGQAPVLVVYDDSDRPSGIPERFSGSNSGNTATLTISRVEAGDEADYYCQVWDSSSDHVVFGGGTKLTVL | 0.14 | 
17 | AB-010668 (antibody, V domains shown) VH: QVQLQQWGAGLLKPSETLSLTCAVYGGSFSDYYWSWIRQPPGKGLEWIGEINHRGSINYNNYNPSLKSRVTISVDTSKNQFSLKLSSVTAADTAVYYCAKPLRPHCINGVCYSGDAFDIWGQGTMVTVAS VL: SYVLTQPPSVSVAPGQTARITCGGNNIGSMNVHWYQQKPGQAPVLVVYDDSDRPSGIPEQFSGSNSGNTATLTISRVEAGDEADYYCQVWDSSSDHVVFGGGTKLTVL | 3.7 | 
18 | AB-010698 (antibody, V domains shown) VH: QVQLQQWGAGLLKPSETLSLTCAVYGGSFSGYYWSWIRQPPGKGLEWIGEINHRGSINYNNYNPSLKSRVTISVDTSKNQFSLKLSSVTAADTAVYYCAKPLRPHCINGVCYSGDAFDIWGQGTMVTVAS VL: SYVLTQPPSVSVAPGQTARITCGGNNIGSKNVHWYQQKPGQAPVLVVYDDSDRPSGIPERFSGSNSGNTATLTISRVEAGDEADYYCQVWDHSSDHVVFGGGTKLTVL | 0.23 | 
19 | AB-010666 (antibody, V domains shown) VH: QVQLQQWGAGLLKPSETLSLTCAVYGGSFSDYYWSWIRQPPGKGLEWIGEINHRGSINYNNYNPSLKSRVTISVDTSKNQFSLKLSSVTAADTAVYYCAKPLRPHCTNGVCYSGDAFDIWGQGTMVTVAS VL: SYVLTQPPSVSVAPGQTARITCGGNNIGYMNVHWYQQKPGQAPVLVVYDDSDRPSGIPEQFSGSNSGNTATLTISRVEAGDEADYYCQVWDSSSDHVVFGGGTKLTVL | ~0.19 | 0.16
20 | AB-010700 (antibody, V domains shown) VH: QVQLQQWGAGLLKPSETLSLTCAVYGGSFSGYYWSWIRQPPGKGLEWIGEINHRGSINYNNYNPSLKSRVTISVDTSKNQFSLKLSSVTAADTAVYYCAKPLRPHCTNGVCYSGDAFDIWGQGTMVTVAS VL: SYVLTQPPSVSVAPGQTARITCGGNNIGSKNVHWYQQKPGQAPVLVVYDDSDRPSGIPERFSGSNSGNTATLTISRVEAGDEADYYCQVWDSRSDHVVFGGGTKLTVL | 9.5 | 
